We go through nine molecules from patent publication CN111662383A (ZHUHAI LIVZON MCAB BIOTECHNOLOGY CO LTD; DINGFU BIOTARGET …, dated 2020).

Assay [1] has as its target T1, 重组的人PD-L1-His (human, UniProt Q9NZQ7 19-238, limits assumed).
T1 construct: Analyte in the BLI assays; also called hPD-L1-His; hPD-L1; not shown: His tag
In words: BLI (Octet K2), antibody on AHC sensor, hPD-L1-His analyte. Background: In BLI a coated tip is dipped into the sample, and binding shifts an interference pattern.

Assay [2] concerns the target T2, hPD-L1-Fc (human, UniProt Q9NZQ7 19-238).
T2 construct: range 1-238; The stated range 1-238 begins at residue 1 and so includes the native signal peptide; No linker is stated; also called hPD-L1-Fc融合蛋白
In words: ELISA blocking assay, hPD-L1-Fc coated, competitor PD-1-Biotin 10μg/ml. (In an ELISA, binding on a coated surface is turned into a signal by an enzyme label.)

In assay [3] the target is T1, 重组的人PD-L1-His. Description: BLI as in Example 4, hPD-L1-His analyte.
The target of assay [4] is T3, PD-L1 (in the mixed lymphocyte reaction of human dendritic cells and CD4+ T cells) (human, UniProt Q9NZQ7 19-290). In words: cell-based or functional assay.
T3 sequence (Q9NZQ7 19-290 limits assumed): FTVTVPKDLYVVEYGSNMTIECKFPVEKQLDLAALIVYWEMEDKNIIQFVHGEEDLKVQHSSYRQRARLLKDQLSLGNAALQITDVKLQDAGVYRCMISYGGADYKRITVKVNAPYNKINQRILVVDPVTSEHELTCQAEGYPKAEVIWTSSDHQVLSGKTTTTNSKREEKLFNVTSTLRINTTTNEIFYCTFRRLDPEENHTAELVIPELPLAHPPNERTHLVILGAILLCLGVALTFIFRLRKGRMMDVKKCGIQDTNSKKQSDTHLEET
Assay [5] addresses T4, hPD-L1-EGFP细胞 (HEK293 cells expressing human PD-L1-EGFP) (human, UniProt Q9NZQ7 19-290).
T4 construct: Fusion expressed on transfected HEK293 cells; junction between PD-L1 and EGFP not described; also called 细胞表面PD-L1; not shown: enhanced green fluorescent protein EGFP, UniProt C5MKY7
In words: FACS on PD-L1-EGFP cells.

Assay [6] addresses T5, hPD-1-EGFP细胞 (HEK293 cells expressing human PD-1-EGFP) (human, UniProt Q15116 25-288).
T5 construct: Fusion expressed on transfected HEK293 cells; not shown: enhanced green fluorescent protein EGFP, UniProt C5MKY7
Description: FACS on transfected HEK293 cells.

The target of assay [7] is T6, hB7H3-EGFP细胞 (HEK293 cells expressing human B7H3-EGFP) (human, UniProt Q5ZPR3 29-534).
T6 construct: not shown: enhanced green fluorescent protein EGFP, UniProt C5MKY7
T6 sequence (looked up): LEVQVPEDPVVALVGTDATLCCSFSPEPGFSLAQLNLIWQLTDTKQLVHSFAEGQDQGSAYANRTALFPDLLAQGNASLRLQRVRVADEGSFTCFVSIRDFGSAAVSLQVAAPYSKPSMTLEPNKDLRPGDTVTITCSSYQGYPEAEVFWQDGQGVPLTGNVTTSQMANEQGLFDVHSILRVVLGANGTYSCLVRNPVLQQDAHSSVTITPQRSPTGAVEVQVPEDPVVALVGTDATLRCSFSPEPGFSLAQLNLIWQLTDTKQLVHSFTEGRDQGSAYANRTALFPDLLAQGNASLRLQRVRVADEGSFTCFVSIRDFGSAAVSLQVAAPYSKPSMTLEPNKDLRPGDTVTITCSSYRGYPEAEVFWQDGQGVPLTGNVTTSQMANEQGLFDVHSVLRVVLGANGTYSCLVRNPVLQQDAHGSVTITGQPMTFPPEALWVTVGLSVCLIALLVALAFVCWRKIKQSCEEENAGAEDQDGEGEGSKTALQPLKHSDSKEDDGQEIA
In words: FACS on transfected HEK293 cells.

In assay [8] the target is T7, hB7H4细胞 (HEK293 cells expressing human B7H4-EGFP) (human, UniProt Q7Z7D3 25-282).
T7 construct: also called hB7H4-EGFP; not shown: enhanced green fluorescent protein EGFP, UniProt C5MKY7
T7 sequence (looked up): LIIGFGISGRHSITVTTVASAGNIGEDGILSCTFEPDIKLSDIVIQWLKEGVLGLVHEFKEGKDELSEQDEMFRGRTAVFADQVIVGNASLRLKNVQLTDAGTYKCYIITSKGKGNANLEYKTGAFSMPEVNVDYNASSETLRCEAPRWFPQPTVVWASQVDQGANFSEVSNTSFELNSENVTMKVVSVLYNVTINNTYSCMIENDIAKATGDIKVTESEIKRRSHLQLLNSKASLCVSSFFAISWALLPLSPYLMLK
In words: FACS on transfected HEK293 cells.

For assay [9], the target named is T8, mPD-L1细胞 (HEK293 cells expressing mouse PD-L1-EGFP) (mouse, UniProt Q9EP73 19-290).
T8 construct: also called mPD-L1-EGFP; 小鼠PD-L1; not shown: enhanced green fluorescent protein EGFP, UniProt C5MKY7
T8 sequence (Q9EP73 19-290): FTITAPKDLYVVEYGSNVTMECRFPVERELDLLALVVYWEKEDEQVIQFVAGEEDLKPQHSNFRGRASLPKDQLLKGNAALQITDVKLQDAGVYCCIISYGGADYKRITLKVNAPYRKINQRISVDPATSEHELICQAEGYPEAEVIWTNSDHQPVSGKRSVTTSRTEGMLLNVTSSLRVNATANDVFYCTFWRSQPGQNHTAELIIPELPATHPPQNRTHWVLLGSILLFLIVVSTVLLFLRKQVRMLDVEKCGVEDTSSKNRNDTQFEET
Description: FACS on transfected HEK293 cells.

Assay [10] has as its target T1, 重组的人PD-L1-His. In words: BLI (Octet K2), antibody on AMC sensor, hPD-L1-His analyte.
Assay [11] addresses T3, PD-L1 (in the mixed lymphocyte reaction …). Description: cell-based or functional assay. This is another data set of the same source.
Assay [12] shares this target. In words: cell-based or functional assay. This is another data set of the same source.
The target of assay [13] is T1, 重组的人PD-L1-His. Description: BLI as in Example 4, hPD-L1-His analyte. The source holds these as a separate data set.

Where two headings read alike, the source gives them in different places.

T5 sequence (Q15116 25-288): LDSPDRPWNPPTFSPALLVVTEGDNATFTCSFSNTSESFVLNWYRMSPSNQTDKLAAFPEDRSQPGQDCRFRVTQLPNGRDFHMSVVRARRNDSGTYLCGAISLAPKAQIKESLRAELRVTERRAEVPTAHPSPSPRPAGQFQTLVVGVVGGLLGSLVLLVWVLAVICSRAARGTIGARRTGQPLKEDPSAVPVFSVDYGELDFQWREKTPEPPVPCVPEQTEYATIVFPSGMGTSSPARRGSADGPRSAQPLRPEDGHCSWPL
T4 sequence (Q9NZQ7 19-290): as the sequence (Q9NZQ7 19-290 limits assumed) above
T2 sequence (Q9NZQ7 19-238 limits assumed, form in doubt): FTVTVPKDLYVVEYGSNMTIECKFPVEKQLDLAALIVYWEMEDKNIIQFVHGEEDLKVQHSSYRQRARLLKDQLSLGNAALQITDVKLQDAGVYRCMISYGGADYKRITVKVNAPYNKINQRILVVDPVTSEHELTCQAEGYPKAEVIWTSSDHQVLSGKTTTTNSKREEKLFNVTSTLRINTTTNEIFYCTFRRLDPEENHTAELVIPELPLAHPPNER
T1 sequence (Q9NZQ7 19-238 limits assumed): as the sequence (Q9NZQ7 19-238 limits assumed, form in doubt) above

B1: 人源化抗体8G1 3-3 (antibody, V domains shown)
VH: QVQLVQSGAEVKKPGASVKVSCKASGYTFTEYIIHWVKQAPGQGLEWIGWFYPGSGNIRYNEKFKDKATLTADKSSSTVYMELSSLRSEDTAVYFCARHEDKGAWFAYWGQGTLVTVSS
VL: DIVLTQSPATLSLSPGERATLSCSASSNVSYMYWYQQKPGQSPKPWIYLTSNLASGVPARFTGSGSGTSYTLTISSLEPEDFAVYYCQQWSSNPLTFGQGTKVEIK
notes: Humanized; also called 8G1VLV3 + 8G1VHV3
In general, Kd refers to the constant that tells how readily two partners part at equilibrium. Lower therefore signals higher affinity. The term koff denotes the rate constant with which the complex falls apart. The kon is the second-order rate constant of association. One may read the IC50 as the concentration at which inhibition is half-maximal. In assay [1], B1 came in with a Kd of 0.0163 nM, an off-rate (koff) of 5.79e-06 s⁻¹ and a kon of 355000 M⁻¹ s⁻¹. The molecule further had a half-inhibitory concentration (IC50) in assay [2] of 1.24 µg/mL.

B2: 8G1 3-3NG (antibody, V domains shown)
VH: QVQLVQSGAEVKKPGASVKVSCKASGYTFTEYIIHWVKQAPGQGLEWIGWFYPGSGNIRYNEKFKDKATLTADKSSSTVYMELSSLRSEDTAVYFCARHEDKGAWFAYWGQGTLVTVSS
VL: DIVLTQSPATLSLSPGERATLSCSASSQVSYMYWYQQKPGQSPKPWIYLTSNLASGVPARFTGSGSGTSYTLTISSLEPEDFAVYYCQQWSSNPLTFGQGTKVEIK
notes: Glycosylation-site variant of humanized 8G1 3-3; human IgG1 format as for 8G1 3-3; also called 8G1 3-3 with N28 mutated in VL
Take B2: in [3], binding was put at a Kd of 6.89 nM, the koff worked out at 0.00174 s⁻¹ and the kon was 252000 M⁻¹ s⁻¹.

B3: 抗体8G1 (antibody, V domains shown)
VH: KVQLRQSGAELVKPGTSVKLSCKASGYTFTEYIIHWVKQRSGQGLEWIGWFYPGSGNIRYNEKFKDKATLTADKSSSTVYMELSRLTSEDSAVYFCARHEDKGAWFAYWGQGTLVTVSA
VL: DIVLTQSPALLSASPGEKVTMTCSASSNVSYMYWYQQKPRSSPKPWIYLTSNLASGVPARFTGSGSGTSYSLTISSMEAEDGATYYCQQWSSNPLTFGAGTKLEVK
notes: Mouse antibody purified from hybridoma supernatant on protein A
A word on the EC50: it is the concentration at which the effect is half-maximal. The low end stands for higher potency in that assay, the high end for lower potency in that assay. For B3, the “EC50 of IFN-γ secretion in mixed lymphocyte reaction (MLR)” value (shortened to “EC50 of IFN-γ secretion”) in assay [4] is about 0.03 µg/mL. In assay [5], the 50% effective concentration (EC50) worked out at 2.25 µg/mL. The binding result in [6], in assay [7], in assay [8] and in assay [9] was “no binding (tested: 10μg/ml)” in each case. In addition, in [10], the Kd is 2.32 nM. Also, the koff in assay [10] was 0.00117 s⁻¹. Also, the kon in assay [10] worked out at 504000 M⁻¹ s⁻¹.

B4: 人源化抗体7A3 3-3 (antibody, V domains shown)
VH: QVQLQESGPGLVKPSETLSLTCTVSGDSITSGYWNWIRKPPGNGLEYMGYISYTGSTYYNPSLKSRITITRDTSKNQYSLKLSSVTAADTAVYYCARFGLWHLPAALDYWGQGTLVTVSS
VL: DIVLTQSPATLSLSPGERATLSCSAKSSISYMHWYQQKPGTSPKRWIYDTSKLASGVPARFSGSGSGTSYTLTISSLEPEDFAVYYCHQRSSYPFTFGQGTKVEIK
notes: Humanized; also called 7A3VLV3 + 7A3VHV3
In the case of B4, the “EC50 of IFN-γ secretion” value in assay [11] amounted to 0.449 µg/mL. Moreover, the “EC50 of IFN-γ secretion” value in assay [12] was 0.0285 µg/mL. Further, in [13], binding was put at a Kd of 13.2 nM, the off-rate (koff) was 0.00547 s⁻¹ and the kon was found to be 415000 M⁻¹ s⁻¹. In [1], this molecule had a Kd of 2.85 nM, a koff of 0.00128 s⁻¹ and an on-rate (kon) of 449000 M⁻¹ s⁻¹. In [2], this molecule yielded an IC50 of 1.44 µg/mL.

B5: 7A3 3-3QG (antibody, V domains shown)
VH: QVQLQESGPGLVKPSETLSLTCTVSGDSITSGYWNWIRKPPGQGLEYMGYISYTGSTYYNPSLKSRITITRDTSKNQYSLKLSSVTAADTAVYYCARFGLWHLPAALDYWGQGTLVTVSS
VL: DIVLTQSPATLSLSPGERATLSCSAKSSISYMHWYQQKPGTSPKRWIYDTSKLASGVPARFSGSGSGTSYTLTISSLEPEDFAVYYCHQRSSYPFTFGQGTKVEIK
notes: human IgG1 format as for 7A3 3-3; also called 7A3 3-3 with N43Q in VH
In the case of B5, the “EC50 of IFN-γ secretion” value in [12] was 1.05 µg/mL.

B6: 人源化抗体7A3 1-3 (antibody, V domains shown)
VH: QVQLQESGPGLVKPSETLSLTCTVSGDSITSGYWNWIRKPPGNGLEYMGYISYTGSTYYNPSLKSRITITRDTSKNQYSLKLSSVTAADTAVYYCARFGLWHLPAALDYWGQGTLVTVSS
VL: DIVLTQSPATLSLSPGERATLSCSAKSSISYMHWYQQKPGQAPRLLIYDTSKLASGVPARFSGSGSGTDFTLTISSLEPEDFAVYYCHQRSSYPFTFGQGTKVEIK
notes: Humanized; also called 7A3VLV1 + 7A3VHV3
Take B6: the “EC50 of IFN-γ secretion” value in assay [11] is about 0.176 µg/mL. Moreover, in [1], the Kd amounted to 23.6 nM, the koff was 0.0119 s⁻¹ and the kon is 504000 M⁻¹ s⁻¹. In assay [2], the IC50 was determined as 1.82 µg/mL.

B7: 7A3 3-3ND (antibody, V domains shown)
VH: QVQLQESGPGLVKPSETLSLTCTVSGDSITSGYWNWIRKPPGNDLEYMGYISYTGSTYYNPSLKSRITITRDTSKNQYSLKLSSVTAADTAVYYCARFGLWHLPAALDYWGQGTLVTVSS
VL: DIVLTQSPATLSLSPGERATLSCSAKSSISYMHWYQQKPGTSPKRWIYDTSKLASGVPARFSGSGSGTSYTLTISSLEPEDFAVYYCHQRSSYPFTFGQGTKVEIK
notes: human IgG1 format as for 7A3 3-3; also called 7A3 3-3 with G44D in VH
As to B7, the “EC50 of IFN-γ secretion” value in [12] was 0.576 µg/mL. For the same molecule, in [13], the dissociation constant (Kd) was found to be 14.4 nM, the koff stood at 0.00631 s⁻¹ and the kon was 438000 M⁻¹ s⁻¹.

B8: 抗体5A5 (antibody, V domains shown)
VH: EVQLQESGPSLVKPSQTLSLTCSVTGDSITSGYWNWIRKFPGNKLEYMGYISYTGSTYYNPSLKSRISITRDTSKNQYYLQLNSVTTEDTATYYCAKYGLWHLPAAMDYWGQGTSVTVSS
VL: DIVLTQSPAIMSASPGEKVTMTCSASSSISYMHWYQQKPGTSPKRWIYDTSKLASGVPARFSGSGSGTSYSLTISSMEAEDAATYYCHQRSSYPFTFGSGTKLEIK
notes: as for B3
For the molecule B8, in assay [4], the “EC50 of IFN-γ secretion” value was found to be 0.104 µg/mL. For the same molecule, the EC50 in [5] worked out at 1.33 µg/mL. The binding result in assay [6], in [7], in [8] and in [9] was “no binding (tested: 10μg/ml)” throughout. In [10], this molecule showed a Kd of 5.75 nM. In assay [10], this molecule came in with a koff of 0.00453 s⁻¹. In [10], this molecule gave a kon of 788000 M⁻¹ s⁻¹.

B9: 抗体7A3 (antibody, V domains shown)
VH: EVQLQESGPSLVKPSQTLSLTCSVTGDSITSGYWNWIRKFPGNDLEYMGYISYTGSTYYNPSLKSRISITRDTSKNQYYLQLNSVTTEDTATYYCARFGLWHLPAALDYWGQGTSVTVSS
VL: DIVLTQSPAIMSASPGEKVTMTCSAKSSISYMHWYQQKPGTSPKRWIYDTSKLASGVPARFSGSGSGTSYSLTISSMEAEDAATYYCHQRSSYPFTFGSGTKLEIK
notes: as for B3
B9: the “EC50 of IFN-γ secretion” value in assay [4] came to 0.0588 µg/mL. Moreover, it took 2.76 µg/mL to reach a half-maximal effect in assay [5] (EC50). In addition, the binding result in assay [6], in assay [7], in assay [8] and in [9] was “no binding (tested: 10μg/ml)” each time. In [10], binding was put at a Kd of 4.29 nM. The koff in assay [10] is 0.0036 s⁻¹. Also, the association rate constant (kon) in assay [10] is 840000 M⁻¹ s⁻¹.
